From IntAct's records for PubMed 31515488

B1: Peroxisomal bifunctional enzyme (Homo sapiens), Q08426 (parent)
chain: MAEYTRLHNALALIRLRNPPVNAISTTLLRDIKEGLQKAVIDHTIKAIVICGAEGKFSAGADIRGFSAPRTFGLTLGHVVDEIQRNEKPVVAAIQGMAFGGGLELALGCHYRIAHAEAQVGLPEVTLGLLPGARGTQLLPRLTGVPAALDLITSGRRILADEALKLGILDKVVNSDPVEEAIRFAQRVSDQPLESRRLCNKPIQSLPNMDSIFSEALLKMRRQHPGCLAQEACVRAVQAAVQYPYEVGIKKEEELFLYLLQSGQARALQYAFFAERKANKWSTPSGASWKTASARPVSSVGVVGLGTMGRGIVISFARARIPVIAVDSDKNQLATANKMITSVLEKEASKMQQSGHPWSGPKPRLTSSVKELGGVDLVIEAVFEEMSLKKQVFAELSAVCKPEAFLCTNTSALDVDEIASSTDRPHLVIGTHFFSPAHVMKLLEVIPSQYSSPTTIATVMNLSKKIKKIGVVVGNCFGFVGNRMLNPYYNQAYFLLEEGSKPEEVDQVLEEFGFKMGPFRVSDLAGLDVGWKSRKGQGLTGPTLLPGTPARKRGNRRYCPIPDVLCELGRFGQKTGKGWYQYDKPLGRIHKPDPWLSKFLSRYRKTHHIEPRTISQDEILERCLYSLINEAFRILGEGIAASPEHIDVVYLHGYGWPRHKGGPMFYASTVGLPTVLEKLQKYYRQNPDIPQLEPSDYLKKLASQGNPPLKEWQSLAGSPSSKL
partner: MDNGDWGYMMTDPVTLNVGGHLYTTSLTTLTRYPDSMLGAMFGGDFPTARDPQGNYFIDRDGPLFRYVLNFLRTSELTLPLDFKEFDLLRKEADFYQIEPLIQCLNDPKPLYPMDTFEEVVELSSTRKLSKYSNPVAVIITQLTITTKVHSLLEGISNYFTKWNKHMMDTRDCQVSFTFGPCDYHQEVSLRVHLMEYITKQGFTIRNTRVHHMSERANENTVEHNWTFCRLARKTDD
B2: Notch homolog 2 N-terminal-like protein A (Homo sapiens), Q7Z3S9 (parent)
chain: MCVTYHNGTGYCKCPEGFLGEYCQHRDPCEKNRCQNGGTCVAQAMLGKATCRCASGFTGEDCQYSTSHPCFVSRPCLNGGTCHMLSRDTYECTCQVGFTGKECQWTDACLSHPCANGSTCTTVANQFSCKCLTGFTGQKCETDVNECDIPGHCQHGGTCLNLPGSYQCQCLQGFTGQYCDSLYVPCAPSPCVNGGTCRQTGDFTFECNCLPETVRRGTELWERDREVWNGKEHDEN
partner: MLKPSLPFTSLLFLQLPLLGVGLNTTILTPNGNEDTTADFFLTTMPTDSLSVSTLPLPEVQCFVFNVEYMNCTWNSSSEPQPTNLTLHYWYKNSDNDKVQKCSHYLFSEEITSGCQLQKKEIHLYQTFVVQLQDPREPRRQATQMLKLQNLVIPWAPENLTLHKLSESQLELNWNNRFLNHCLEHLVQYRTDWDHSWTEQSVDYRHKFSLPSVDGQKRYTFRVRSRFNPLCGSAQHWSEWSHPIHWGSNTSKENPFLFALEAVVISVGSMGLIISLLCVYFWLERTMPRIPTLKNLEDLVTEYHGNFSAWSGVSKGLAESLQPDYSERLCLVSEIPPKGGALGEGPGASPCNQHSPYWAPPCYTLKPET
B3: E3 ubiquitin-protein ligase LNX (Homo sapiens), Q8TBB1 (parent)
chain: MNQPESANDPEPLCAVCGQAHSLEENHFYSYPEEVDDDLICHICLQALLDPLDTPCGHTYCTLCLTNFLVEKDFCPMDRKPLVLQHCKKSSILVNKLLNKLLVTCPFREHCTQVLQRCDLEHHFQTSCKGASHYGLTKDRKRRSQDGCPDGCASLTATAPSPEVSAAATISLMTDEPGLDNPAYVSSAEDGQPAISPVDSGRSNRTRARPFERSTIRSRSFKKINRALSVLRRTKSGSAVANHADQGRENSENTTAPEVFPRLYHLIPDGEITSIKINRVDPSESLSIRLVGGSETPLVHIIIQHIYRDGVIARDGRLLPGDIILKVNGMDISNVPHNYAVRLLRQPCQVLWLTVMREQKFRSRNNGQAPDAYRPRDDSFHVILNKSSPEEQLGIKLVRKVDEPGVFIFNVLDGGVAYRHGQLEENDRVLAINGHDLRYGSPESAAHLIQASERRVHLVVSRQVRQRSPDIFQEAGWNSNGSWSPGPGERSNTPKPLHPTITCHEKVVNIQKDPGESLGMTVAGGASHREWDLPIYVISVEPGGVISRDGRIKTGDILLNVDGVELTEVSRSEAVALLKRTSSSIVLKALEVKEYEPQEDCSSPAALDSNHNMAPPSDWSPSWVMWLELPRCLYNCKDIVLRRNTAGSLGFCIVGGYEEYNGNKPFFIKSIVEGTPAYNDGRIRCGDILLAVNGRSTSGMIHACLARLLKELKGRITLTIVSWPGTFL
B4: Protein FAM167A (Homo sapiens), Q96KS9 (parent)
chain: MSVPQIHVEEVGAEEGAGAAAPPDDHLRSLKALTEKLRLETRRPSYLEWQARLEEHTWPFPRPAAEPQASLEEGERGGQEPLLPLREAGQHPPSARSASQGARPLSTGKLEGFQSIDEAIAWLRKELTEMRLQDQQLARQLMRLRGDINKLKIEHTCRLHRRMLNDATYELEERDELADLFCDSPLASSFSLSTPLKLIGVTKMNINSRRFSLC
partner: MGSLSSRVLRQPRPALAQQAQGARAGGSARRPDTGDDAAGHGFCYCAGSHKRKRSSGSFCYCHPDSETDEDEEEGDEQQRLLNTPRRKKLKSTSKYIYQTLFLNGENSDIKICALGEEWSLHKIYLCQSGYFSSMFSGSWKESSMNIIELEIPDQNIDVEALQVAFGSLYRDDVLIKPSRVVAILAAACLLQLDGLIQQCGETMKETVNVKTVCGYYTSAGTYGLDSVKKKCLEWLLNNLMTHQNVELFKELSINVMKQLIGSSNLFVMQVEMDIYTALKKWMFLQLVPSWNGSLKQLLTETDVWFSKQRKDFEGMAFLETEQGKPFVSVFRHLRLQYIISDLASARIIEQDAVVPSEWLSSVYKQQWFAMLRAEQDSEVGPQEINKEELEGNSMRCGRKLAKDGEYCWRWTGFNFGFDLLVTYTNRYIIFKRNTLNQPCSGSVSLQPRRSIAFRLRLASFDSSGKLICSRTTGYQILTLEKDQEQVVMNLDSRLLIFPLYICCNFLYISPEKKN
B5: "N-acyl-aromatic-L-amino acid amidohydrolase (carboxylate-forming)" (Homo sapiens), Q96HD9 (parent)
chain: MCSLPVPREPLRRVAVTGGTHGNEMSGVYLARHWLHAPAELQRASFSAVPVLANPAATSGCRRYVDHDLNRTFTSSFLNSRPTPDDPYEVTRARELNQLLGPKASGQAFDFVLDLHNTTANMGTCLIAKSSHEVFAMHLCRHLQLQYPELSCQVFLYQRSGEESYNLDSVAKNGLGLELGPQPQGVLRADIFSRMRTLVATVLDFIELFNQGTAFPAFEMEAYRPVGVVDFPRTEAGHLAGTVHPQLQDRDFQPLQPGAPIFQMFSGEDLLYEGESTVYPVFINEAAYYEKGVAFVQTEKFTFTVPAMPALTPAPSPAS
B6: Glycolipid transfer protein (Homo sapiens), Q9NZD2 (parent)
chain: MALLAEHLLKPLPADKQIETGPFLEAVSHLPPFFDCLGSPVFTPIKADISGNITKIKAVYDTNPAKFRTLQNILEVEKEMYGAEWPKVGATLALMWLKRGLRFIQVFLQSICDGERDENHPNLIRVNATKAYEMALKKYHGWIVQKIFQAALYAAPYKSDFLKALSKGQNVTEEECLEKIRLFLVNYTATIDVIYEMYTQMNAELNYKV
partner: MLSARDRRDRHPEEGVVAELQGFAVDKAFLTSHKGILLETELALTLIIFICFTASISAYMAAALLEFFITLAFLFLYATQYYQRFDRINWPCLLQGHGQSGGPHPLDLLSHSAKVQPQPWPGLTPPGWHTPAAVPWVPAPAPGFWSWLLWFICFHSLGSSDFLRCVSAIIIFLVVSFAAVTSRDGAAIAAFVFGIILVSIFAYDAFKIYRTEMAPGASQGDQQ

Variants of: B1
Settings: with kctd6_human KCTD6, Q8NC69

Variant	effect of a mutation on the interaction
R483Q	disrupting interaction strength
I646T	disrupting interaction strength
L715S	disrupting interaction strength
S703F	with no effect

Variants of: B2
Settings: with il2rg_human IL2RG

Variant	effect of a mutation on the interaction
A115T	with no effect
R74Q	with no effect

Variants of: B3
Settings: with tri23_human TRIM23, P36406
tri23_human TRIM23, P36406, sequence (P36406 whole entry): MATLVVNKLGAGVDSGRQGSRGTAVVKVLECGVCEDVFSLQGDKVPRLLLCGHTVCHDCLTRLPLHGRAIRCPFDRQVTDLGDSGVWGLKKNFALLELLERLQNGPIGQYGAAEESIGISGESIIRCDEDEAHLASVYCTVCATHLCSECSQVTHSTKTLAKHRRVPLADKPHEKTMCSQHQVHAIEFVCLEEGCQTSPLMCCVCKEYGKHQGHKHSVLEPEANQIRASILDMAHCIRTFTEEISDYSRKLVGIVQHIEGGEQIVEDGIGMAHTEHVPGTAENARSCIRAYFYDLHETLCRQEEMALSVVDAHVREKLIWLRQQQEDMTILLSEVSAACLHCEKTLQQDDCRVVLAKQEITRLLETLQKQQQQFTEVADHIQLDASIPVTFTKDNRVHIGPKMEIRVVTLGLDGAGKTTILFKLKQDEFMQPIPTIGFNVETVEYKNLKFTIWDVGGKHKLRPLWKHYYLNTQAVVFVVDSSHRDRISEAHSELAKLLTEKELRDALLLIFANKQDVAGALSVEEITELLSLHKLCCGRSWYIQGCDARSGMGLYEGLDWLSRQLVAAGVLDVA

Variant	effect of a mutation on the interaction
R342H	with no effect

Variants of: B3
Settings: with clk2_human CLK2, P49760
clk2_human CLK2, P49760, sequence (P49760 whole entry, looked up): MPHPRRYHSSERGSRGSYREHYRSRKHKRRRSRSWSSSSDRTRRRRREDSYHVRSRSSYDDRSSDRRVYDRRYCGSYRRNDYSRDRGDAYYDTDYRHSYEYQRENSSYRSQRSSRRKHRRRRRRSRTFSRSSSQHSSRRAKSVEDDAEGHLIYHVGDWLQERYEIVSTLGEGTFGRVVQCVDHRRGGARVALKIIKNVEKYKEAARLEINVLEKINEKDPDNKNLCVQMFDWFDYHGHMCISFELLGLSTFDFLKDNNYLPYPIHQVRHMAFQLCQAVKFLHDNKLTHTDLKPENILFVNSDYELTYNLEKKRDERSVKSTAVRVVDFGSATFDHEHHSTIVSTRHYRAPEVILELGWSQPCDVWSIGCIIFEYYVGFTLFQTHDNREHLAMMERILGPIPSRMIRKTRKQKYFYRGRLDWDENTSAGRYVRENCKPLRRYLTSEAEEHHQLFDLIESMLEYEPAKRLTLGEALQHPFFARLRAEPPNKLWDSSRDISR

Variant	effect of a mutation on the interaction
R342H	with no effect

Variants of: B4
Settings: with gmcl1_human GMCL1, Q96IK5

Variant	effect of a mutation on the interaction
S99T	with no effect

Variants of: B5
Settings: with gors2_human GORASP2, Q9H8Y8

Variant	effect of a mutation on the interaction
R8Q	with no effect

Variants of: B6
Settings: with cklf5_human CMTM5, Q96DZ9

Variant	effect of a mutation on the interaction
R68Q	with no effect
R116Q	with no effect
